Test results published in publication PMC11852716, “c-di-GMP phosphodiesterase ProE interacts with quorum sensing protein PqsE to promote pyocyanin production in Pseudomonas aeruginosa” (mSphere, 2025).

Key:
Details in all cases: both partners purified
[1] = target: T1, c-di-GMP phosphodiesterase ProE (Pseudomonas aeruginosa, UniProt Q9HTQ9 1-558); assay: SPR; Biacore T200, 25°C, PBST pH 7.4; PqsE amine-coupled on CM5 chip, ProE injected with 100 µM c-di-GMP
T1 construct: ProE, c-di-GMP phosphodiesterase of Pseudomonas aeruginosa PAO1; also called PDE ProE
T1 sequence: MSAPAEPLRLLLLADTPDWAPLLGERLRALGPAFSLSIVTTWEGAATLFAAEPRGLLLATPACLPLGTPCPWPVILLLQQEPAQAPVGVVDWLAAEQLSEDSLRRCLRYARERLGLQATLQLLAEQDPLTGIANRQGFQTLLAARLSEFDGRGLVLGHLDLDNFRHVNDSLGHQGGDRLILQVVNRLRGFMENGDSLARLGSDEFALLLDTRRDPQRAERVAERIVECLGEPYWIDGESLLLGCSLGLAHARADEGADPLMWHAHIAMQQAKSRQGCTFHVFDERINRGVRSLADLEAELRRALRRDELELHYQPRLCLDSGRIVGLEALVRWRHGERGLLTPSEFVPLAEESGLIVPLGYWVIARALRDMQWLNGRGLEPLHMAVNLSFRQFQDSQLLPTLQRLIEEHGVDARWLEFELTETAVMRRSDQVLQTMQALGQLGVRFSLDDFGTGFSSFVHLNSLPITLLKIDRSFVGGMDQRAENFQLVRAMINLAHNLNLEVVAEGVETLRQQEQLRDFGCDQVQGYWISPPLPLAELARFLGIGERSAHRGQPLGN

[2] = target: T1, c-di-GMP phosphodiesterase ProE; assay: ITC; MicroCal VP-ITC, 25°C; ProE (printed 'Thirty micrometers') in the cell titrated with 300 µM PqsE; PBS with 5 mM β-mercaptoethanol; single set of identical sites model
[3] = target: T1, c-di-GMP phosphodiesterase ProE; assay: SPR; Biacore T200, 25°C, PBST pH 7.4; PqsE amine-coupled on CM5 chip (8,000 RU), ProE injected; 1:1 Langmuir or steady-state affinity model
[4] = target: T1, c-di-GMP phosphodiesterase ProE; assay: SPR; Biacore T200, 25°C, PBST pH 7.4; PqsE amine-coupled on CM5 chip, ProE injected with 10 mM Mg2+

B1: PQS quorum sensing protein PqsE (natural protein)
chain: MLRLSAPGQLDDDLCLLGDVQVPVFLLRLGEASWALVEGGISRDAELVWADLCRWVADPSQVHYWLITHKHYDHCGLLPYLCPRLPNVQVLASERTCQAWKSESAVRVVERLNRQLLRAEQRLPEACAWDALPVRAVADGEWLELGPRHRLQVIEAHGHSDDHVVFYDVRRRRLFCGDALGEFDEAEGVWRPLVFDDMEAYLESLERLQRLPTLLQLIPGHGGLLRGRLAADGAESAYTECLRLCRRLLWRQSMGESLDELSEELHRAWGGQSVDFLPGELHLGSMRRMLEILSRQALPLD
notes: PqsE of the PQS quorum sensing system, Pseudomonas aeruginosa PAO1; DNA fragment encoding pqsE cloned into pET28b(+); source: E. coli BL21(DE3), pET28b(+), purified (Ni-NTA)
- Kd [1]: 2210 nM
- Kd [2]: 5460 nM
- Kd [3]: 3210 nM
- Kd [4]: 2270 nM
